Details: Alicyclobacillus acidocaldarius subsp. acidocaldarius, pH 7.5, 20 °C, CD, sodium phosphate 20 mM, reversible: no

wild type (from UniProt Q7SIG1)
denaturant m value (GdnHCl): 2.08 kcal/mol/M | denaturant midpoint (higher = more stable) (GdnHCl): 1.9 M | unfolding free energy (GdnHCl): 4.3 kcal/mol | denaturant m value (Urea): 2.63 kcal/mol/M | denaturant midpoint (higher = more stable) (Urea): 5.9 M | unfolding free energy (Urea): 15.1 kcal/mol

— FireProtDB (doi:10.1021/bi011146t)
